Measurements: paper PMC5634496 (Nature Communications, 2017)

T1: GST-Ubc13 (UniProt P61088 1-152)
T1 construct: Ubc13 (UBE2N), cDNA in pGEX-4T-1; The end of GST is read from the printed name GST-Ubc13; also called UBE2N; source: E. coli BL21(DE3/pLys), purified (glutathione sepharose beads); not shown: GST, N-terminal, kept
T1 sequence (looked up): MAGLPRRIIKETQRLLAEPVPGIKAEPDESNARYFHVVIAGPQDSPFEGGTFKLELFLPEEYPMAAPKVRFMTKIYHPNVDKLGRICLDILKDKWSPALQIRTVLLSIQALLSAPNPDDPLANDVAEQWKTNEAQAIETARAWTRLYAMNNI


Columns and labels:
GST-Ubc13 = target: T1, GST-Ubc13; experiment: pull-down; purified GST-Ubc13 (or GST) mixed with purified TRAF6 fragments and glutathione sepharose beads in lysis buffer A (20 mM Tris-HCl pH 7.4, 150 mM NaCl, 0.5% NP-40, 10% glycerol), 4 °C, 60 min; immunoblot; details: both partners purified
[1] = target: the molecule itself; experiment: native gel or EMSA; proteins purified on anti-Flag M2 magnetic beads, eluted, resolved on 10% native gel, immunoblot with Flag antibody

Row | binding result (GST-Ubc13) | Binder | binding result [1]
1 | binds | CC-Flag (TRAF6 coiled-coil domain) (domain or fragment, mouse, UniProt P70196-1 296-400, looked up, TRAF6 CC domain, mouse; the limits 296-400 aa are printed in the methods for the CC domain cloned with an MBP tag for E. coli; The end of Flag is read from the printed name CC-Flag; also called CC domain; CC WT; not shown: Flag, C-terminal, kept) CRPEDPNYEETIKQLESRLVRQDHQIRELTAKMETQSMYVGELKRTIRTLEDKVAEMEAQQCNGIYIWKIGNFGMHLKSQEEERPVVIHSPGFYTGRPGYKLCMR | 
2 |  | TRAF6 mutant M5 (deletion of amino acids 313-319), Flag-tagged (natural protein, mouse, UniProt P70196-1 1-530, looked up, TRAF6, mouse, mutant M5: one complete heptad unit of the CC domain deleted; they may differ; also called TRAF6-M5; source: co-IP: Flag-tagged with Myc-tagged TRAF6 WT) MSLLNCENSCGSSQSSSDCCAAMAASCSAAVKDDSVSGSASTGNLSSSFMEEIQGYDVEFDPPLESKYECPICLMALREAVQTPCGHRFCKACIIKSIRDAGHKCPVDNEILLENQLFPDNFAKREILSLTVKCPNKGCLQKMELRHLEDHQVHCEFALVNCPQCQRPFQKCQVNTHIIEDCPRRQVSCVNCAVSMAYEEKEIHDQSCPLANIICEYCGTILIREQMPNHYDLDCPTAPIPCTFSVFGCHEKMQRNHLARHLQENTQLHMRLLAQAVHNVNLALRPCDAASPSRGCRPEDPNYEETIKQLESQIRELTAKMETQSMYVGELKRTIRTLEDKVAEMEAQQCNGIYIWKIGNFGMHLKSQEEERPVVIHSPGFYTGRPGYKLCMRLHLQLPTAQRCANYISLFVHTMQGEYDSHLPWPFQGTIRLTILDQSEALIRQNHEEVMDAKPELLAFQRPTIPRNPKGFGYVTFMHLEALRQGTFIKDDTLLVRCEVSTRFDMGGLRKEGFQPRSTDAGV | binds
3 |  | TRAF6 mutant M4 (V315A, R316A, H319A), Flag-tagged (natural protein, mouse, UniProt P70196-1 1-530, looked up, TRAF6, mouse, mutant M4 in the CC domain; they may differ (MBP fusion, T6RZC background); also called TRAF6-M4; source: co-IP: Flag-tagged with Myc-tagged TRAF6 WT) MSLLNCENSCGSSQSSSDCCAAMAASCSAAVKDDSVSGSASTGNLSSSFMEEIQGYDVEFDPPLESKYECPICLMALREAVQTPCGHRFCKACIIKSIRDAGHKCPVDNEILLENQLFPDNFAKREILSLTVKCPNKGCLQKMELRHLEDHQVHCEFALVNCPQCQRPFQKCQVNTHIIEDCPRRQVSCVNCAVSMAYEEKEIHDQSCPLANIICEYCGTILIREQMPNHYDLDCPTAPIPCTFSVFGCHEKMQRNHLARHLQENTQLHMRLLAQAVHNVNLALRPCDAASPSRGCRPEDPNYEETIKQLESRLAAQDAQIRELTAKMETQSMYVGELKRTIRTLEDKVAEMEAQQCNGIYIWKIGNFGMHLKSQEEERPVVIHSPGFYTGRPGYKLCMRLHLQLPTAQRCANYISLFVHTMQGEYDSHLPWPFQGTIRLTILDQSEALIRQNHEEVMDAKPELLAFQRPTIPRNPKGFGYVTFMHLEALRQGTFIKDDTLLVRCEVSTRFDMGGLRKEGFQPRSTDAGV | binds
